# From the Human Domainome abundance scans (Beltran et al. 2025)
# ± gives the uncertainty stated by the source.
# B1: Homeobox protein cut-like 1, residues 941 to 1008; numbered along this chain, P39880 (parent)
# chain: QEVDTIELTRQVKEKLAKNGICQRIFGEKVLGLSQGSVSDMLSRPKPWSKLTQKGREPFIRMQLWLNG
# Variants of: B1
# Test: abundance fitness (aPCA) (normalised: wild type 0, dead -1); higher = more abundant; growth selection in yeast, the domain comes from the species named
# Conditions: Homo sapiens
row,Variant,abundance fitness
1,QEEDTIELTRQVKEKLAKNGICQRIFGEKVLGLSQGSVSDMLSRPKPWSKLTQKGREPFIRMQLWLNG,-0.037 ± 0.093
2,QEVDTIELTRQVKEKLAKNGIRQRIFGEKVLGLSQGSVSDMLSRPKPWSKLTQKGREPFIRMQLWLNG,-0.16 ± 0.048
3,QEVDTIELNRQVKEKLAKNGICQRIFGEKVLGLSQGSVSDMLSRPKPWSKLTQKGREPFIRMQLWLNG,-0.348 ± 0.15
4,QEVDTIELTRQVKEMLAKNGICQRIFGEKVLGLSQGSVSDMLSRPKPWSKLTQKGREPFIRMQLWLNG,-0.148 ± 0.075
5,QEVDTIELTRQVKEKLAKNGICQRIFGEKVLGLSQGSVSDMLSRPKPWSKLTQKGRYPFIRMQLWLNG,-0.453 ± 0.096
6,QEVDTIELTRQVKEKLAKNGICQRIFGEKVLGLSQGSVSDMLSRPKPWSKLTQKGRNPFIRMQLWLNG,-0.055 ± 0.11
7,QEVDTIELTRQVKEKLQKNGICQRIFGEKVLGLSQGSVSDMLSRPKPWSKLTQKGREPFIRMQLWLNG,-0.115 ± 0.077
8,QEVDTIELTRQDKEKLAKNGICQRIFGEKVLGLSQGSVSDMLSRPKPWSKLTQKGREPFIRMQLWLNG,-0.049 ± 0.079
9,QEVDTIELTRQAKEKLAKNGICQRIFGEKVLGLSQGSVSDMLSRPKPWSKLTQKGREPFIRMQLWLNG,-0.171 ± 0.055
10,QEVDTIELTRQGKEKLAKNGICQRIFGEKVLGLSQGSVSDMLSRPKPWSKLTQKGREPFIRMQLWLNG,-0.01 ± 0.063
11,QEVDTIELTRQTKEKLAKNGICQRIFGEKVLGLSQGSVSDMLSRPKPWSKLTQKGREPFIRMQLWLNG,-0.177 ± 0.062
12,QEVDTIELTRQLKEKLAKNGICQRIFGEKVLGLSQGSVSDMLSRPKPWSKLTQKGREPFIRMQLWLNG,-0.359 ± 0.05
13,QEVDTIELTRGVKEKLAKNGICQRIFGEKVLGLSQGSVSDMLSRPKPWSKLTQKGREPFIRMQLWLNG,-0.165 ± 0.057
14,QEVDTIELTRQVFEKLAKNGICQRIFGEKVLGLSQGSVSDMLSRPKPWSKLTQKGREPFIRMQLWLNG,-0.768 ± 0.079
15,QEVDTIELTRQVSEKLAKNGICQRIFGEKVLGLSQGSVSDMLSRPKPWSKLTQKGREPFIRMQLWLNG,-0.35 ± 0.056
16,QEVDTIELTRQVAEKLAKNGICQRIFGEKVLGLSQGSVSDMLSRPKPWSKLTQKGREPFIRMQLWLNG,-0.339 ± 0.059
17,QEVDTIELTRQVCEKLAKNGICQRIFGEKVLGLSQGSVSDMLSRPKPWSKLTQKGREPFIRMQLWLNG,-0.459 ± 0.13
18,QEVDTIELTRQVKEKLAKNGICQRIFGEKVLGLSQGSVSDMLSRPKPWSKLTQKGREPFITMQLWLNG,-0.131 ± 0.068
19,QEVDTIELTRQVKEKLAKNGICQRIFGEKVLGLSQGSVSDMLSRPKPWSKLTQKGREPFIFMQLWLNG,-0.991 ± 0.18
20,QEVDTIELTRQVKEKLAKNGICQRIFGEKVLCLSQGSVSDMLSRPKPWSKLTQKGREPFIRMQLWLNG,-0.266 ± 0.076

row,Variant,abundance fitness
1,QEVDTIELTRQVKEKLAKNGICQRIFGEKVLGLSQGSVSDMLSRPKPWSKLTGKGREPFIRMQLWLNG,-0.132 ± 0.054
2,QEVDTIELTRQVKEKLAWNGICQRIFGEKVLGLSQGSVSDMLSRPKPWSKLTQKGREPFIRMQLWLNG,-0.272 ± 0.071
3,QEVDTIELTRQVKEKLAKYGICQRIFGEKVLGLSQGSVSDMLSRPKPWSKLTQKGREPFIRMQLWLNG,-0.331 ± 0.12
4,QEVDTIELTRQVKEKLAKNGICQRIFGEKVLGLSQGSVSDMLSRPKPWSKLTQKGREPFIRHQLWLNG,-1.33 ± 0.4
5,QEVDTIELTRQVKEKLAKNGICQRIFGEKVLGLSQGSVSDMLSRPKPWSKLTQKGREPFIRKQLWLNG,-0.793 ± 0.14
6,QEVDTIELTRQVKEKLAKNGICQRIFREKVLGLSQGSVSDMLSRPKPWSKLTQKGREPFIRMQLWLNG,-0.177 ± 0.054
7,QEVDTIELTRQVKEKLAKNGICQRIFGEKVLGLSQGSVSDMLSRPKPWSKLTQWGREPFIRMQLWLNG,-0.327 ± 0.077
8,QEVDTIELTRQVKEKLAKNGICQRIFGEKVLGLSQGSVSDMLSRPKPWSKLTQCGREPFIRMQLWLNG,-0.317 ± 0.074
9,QEVDTIELTRQVKEKLAKNGICQRIFGEKVLGLSQGSVSDMLSRPKPWSTLTQKGREPFIRMQLWLNG,-0.059 ± 0.074
10,QEVDIIELTRQVKEKLAKNGICQRIFGEKVLGLSQGSVSDMLSRPKPWSKLTQKGREPFIRMQLWLNG,-0.177 ± 0.11
11,QEVDFIELTRQVKEKLAKNGICQRIFGEKVLGLSQGSVSDMLSRPKPWSKLTQKGREPFIRMQLWLNG,-0.235 ± 0.11
12,QEVDTIELTRQVKEKLAKNGICQRIFGEKVTGLSQGSVSDMLSRPKPWSKLTQKGREPFIRMQLWLNG,-0.393 ± 0.063
13,QEVDTIELTRQVKEKLAKNGICQRIFGEKVYGLSQGSVSDMLSRPKPWSKLTQKGREPFIRMQLWLNG,-0.351 ± 0.1
14,QEVDTIELTRQVKEKLAKNGICQRIFGEKVLGLSQGSVSDMLSRPKPWSKLTQKGREPFIRMDLWLNG,-0.389 ± 0.091
15,QEVDTIELTRQVKEKLAKNGICQRIFGEKVLGLSQGSVSDMLSRPKPWSKLTQKGREPFIRMELWLNG,-0.272 ± 0.061
16,QEVDTIELTRQVKEKLAKNGICQRIFGEKVLGLSQGSVSDMLSRPKPWSKLTQKGREPFIRMFLWLNG,-0.258 ± 0.099
17,QEVDTIELTRQVKYKLAKNGICQRIFGEKVLGLSQGSVSDMLSRPKPWSKLTQKGREPFIRMQLWLNG,-0.418 ± 0.23
18,QEVDTIELTRQVKRKLAKNGICQRIFGEKVLGLSQGSVSDMLSRPKPWSKLTQKGREPFIRMQLWLNG,-0.054 ± 0.045
19,QEVDTIELTRQVKEKLAKNGICQRIFGEKVLGLSQGSVSDMSSRPKPWSKLTQKGREPFIRMQLWLNG,-0.236 ± 0.048
20,QEVDTIELTRQVKEKLAKNGICQRIFGEKVLGLSQGSVSDMKSRPKPWSKLTQKGREPFIRMQLWLNG,-0.04 ± 0.077
